Test results reported in publication PMC3769986 (Soft matter, 2011).
Read-outs that look alike come from different tables or passages of the source.

How the values were obtained:
[1] = target: the molecule itself; experiment: small angle neutron scattering
[2] = target: the molecule itself; experiment: small angle neutron scattering; remark: listed apart in the source

B1: 17H6 (other)
chain: MGHHHHHHHHHHSSGHIHMAAAQEAAAAQAAAQAEAAQAAQAAAQEAAAAQAAAQAEAAQAAQAAAQEAAAAQAAAQAEAAQAAQAAAQEAAAAQAAAQAEAAQAAQAAAQEAAAAQAAAQAEAAQAAQAAAQEAAAAQAAAQAEAAQAAQAGGYGGMG
In the case of B1, the “stoichiometry N” value [1] is reported as 266 ± 3 and the “stoichiometry N” value [2] is reported as 171 ± 2.
